Assay results as given in PMC12170907 (Cell Discovery, 2025).

B1: strep-tagged Fab_(H006) (Fab, V domains shown)
VH: QMRLVESGGGVVRPGGSLRLSCAGSGFRFTGYGIHWVRQAPGKGLEWLAYISNDGSKKYHTDSVKGRFTVSRDNAKNTAYLQMNSLRVEETAVYFCAKDGYLSAARGYGMDVWGQGIPVTVSP
VL: SYVLTQPPSVSVAPGQTATITCGGNNIGGKSVHWFQQKPGQAPLLIISDDNDRPSGIPERVSGSNSGNTATLTISRVEAGDEADYYCQVWDTTSDQLVFGGGTMLTVL
B2: Myc-tagged scFv_(H006) (scFv, V domains shown)
VH: B1 VH
VL: B1 VL
B3: strep-tagged Fab_(GC1102) (Fab, V domains shown)
VH: EVQLVESGGGLVKPGGSLRLSCSASGFSLTKYKMTWVRQAPGKGLEWVSSISSTSRDIDYADSVKGRFTISRDNAKNSLFLQMSSLRVDDTAVYYCTRDGWLWGWDVRSNYYYNALDVWGQGTTVTVSS
VL: DIVVTQSPSSLSASVGDRVTITCRASQGIYNSIAWYQQKPGKAPKLLLYSTSTLLSGVPSRFSGSGSGTDYTLTITNLQPEDFATYYCQQYFVTPETFGQGTKLEIK
notes: also called strep-HA-tagged NAb_(GC1102); Fab_(GC1102) bait
B4: Myc-tagged Fab_(GC1102) (Fab, V domains shown)
VH: B3 VH
VL: B3 VL
notes: also called NAb_(GC1102); GC1102 prey
B5: 3× HA-tagged FabHBC (Fab, V domains shown)
VH: ELQLVESGGGWVQPGGSQRLSCAASGRIFRSFYMSWVRQAPGKGLEWVATINQDGSEKLYVDSVKGRFTISRDNAKNSLFLQMNNLRVEDTAVYYCAAWSGNSGGMDVWGQGTTVSVSS
VL: SYELTQPPSVSVSPGQTVSIPCSGDKLGNKNVCWFQHKPGQSPVLVIYEVKYRPSGIPERFSGSNSGNTATLTISGTQAMDEAAYFCQTWDSTTVVFGGGTRLTVL
notes: also called NAbHBC; parental antibody of VIR-3434; source: FreeStyle 293F, co-transfected heavy and light chain, purified from the supernatant (Ni-NTA, SP HP); not shown: His tag (from the Ni-NTA purification); 3× HA, C-terminal, kept

Columns and labels:
[1] = biological target: T1, Superfolder-GFP-tagged M-HBsAg (serotype ayw, genotype D3) (Hepatitis B virus genotype D3, serotype …, UniProt P03138); test: pull-down; conditions: one partner purified
T1 construct: source: FreeStyle 293F cells, BacMam virus; purified (ELISA); membranes solubilised with 1% LMNG and 0.1% CHS, supernatant (pull-down); not shown: superfolder GFP, N-terminal, kept

[2] = biological target: T1, Superfolder-GFP-tagged M-HBsAg …; test: ELISA; conditions: both partners purified

Binder | binding result [1] | binding result [2]
B1 | binds | 
B2 | binds | 
B3 | binds | 
B4 | binds | 
B5 |  | binds
